Data set [1] deals with T1, PaHisGS (short-form ATP phosphoribosyltransferase catalytic subunit) (Psychrobacter arcticus, UniProt Q4FQF7).
T1 construct: gene hisG
T1 sequence (Q4FQF7 1-231): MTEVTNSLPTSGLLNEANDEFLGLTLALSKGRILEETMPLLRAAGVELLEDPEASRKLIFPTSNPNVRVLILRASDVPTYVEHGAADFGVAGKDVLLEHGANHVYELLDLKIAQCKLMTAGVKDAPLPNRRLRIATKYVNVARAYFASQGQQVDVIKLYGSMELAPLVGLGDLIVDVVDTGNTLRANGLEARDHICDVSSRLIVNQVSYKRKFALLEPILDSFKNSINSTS
The experiment in a line: ITC (single-site model, […]); DSF Tm shift +[…] °C. In kind it is binding.

Data set [2] deals with T1, PaHisGS (short-form ATP phosphoribosyltransferase catalytic subunit). The experiment in a line: steady-state inhibition kinetics, absorbance at […] nm (IC50 […]; Ki […] vs PRPP, […] vs ATP). In kind it is biochemical.
Data set [3] shares this target. The experiment in a line: steady-state kinetics, initial velocity patterns, […] NMR of turnover (no ITC or DSF signal without PRPP). In kind it is biochemical.
The target is the same in data set [4]. Kind of data set: […] NMR of product formation and steady-state kinetics (alternative substrate, with PRPP). In kind it is biochemical.
Substrate in data set [5]: Nc1ncnc2c1ncn2[C@@H]1O[C@H](COP(=O)(O)OP(=O)(O)OP(=O)(O)O)[C@@H](O)[C@H]1O
The experiment in a line: purified protein, by the assay type. More on the design: steady-state substrate saturation kinetics with Mg2+, Michaelis-Menten fit. The text has this: (§1) Replacement of Mg^2+ by Mn^2+ is a common strategy in enzymology,[36] having been employed to uncover rate-limiting steps in reactions involving stabilization of phosphate groups.[37] HisGL ATPPRTs have been reported to have their activities either unaltered or decreased by changing the divalent metal in the reaction from the physiological Mg^2+ to Mn^2+, but no mechanistic inference has been drawn.[17],[38] […] Mn^2+ led to 2.6- and 11-fold increases in PaHisGSkcat and kcat/KM^ATP, respectively, as compared with Mg^2+. The change in kcat/KM^ATP was driven in large part by a reduction in KM^ATP. LC-MS analysis of the PaHisGS reaction with Mn^2+ confirmed the same product, PRATP, was being formed (Figure S5).  Figure 5 Steady-state kinetics with Mg^2+ (green) and Mn^2+ (blue). Saturation curves varying either PRPP or ATP concentration with saturating concentration of the cosubstrate for (A and B) PaHisGS and (C and D) PaATPPRT. Data points are mean ± SE, and lines are data fitting to eq 3. Kinetic and DSF data were analyzed by the nonlinear regression function of SigmaPlot 13 (SPSS Inc.). Data points and error bars in graphs are represented as mean ± standard error, and kinetic and equilibrium constants are presented as mean ± fitting error. Initial rate data with varying concentrations of PaHisZ were fitted to eq 1. The concentration of PaATPPRT at any concentration of PaHisGS and PaHisZ was calculated according to eq 2. Substrate saturation data were fitted to eq 3. Inhibition data at fixed substrate concentrations were fitted to eq 4, and competitive inhibition data were fitted to eq 5. Initial velocity patterns were fitted to eq 6, and pre-steady-state kinetics under multiple-turnover conditions was fitted to eq 7. In eqs 1–7, v is the initial rate, Vmax is the maximal velocity, G is the concentration of PaHisGS, Z is the concentration of PaHisZ, KD is the equilibrium dissociation constant, PaATPPRT is the concentration of PaHisGS-PaHisZ complex, S is the concentration of the varying substrate, kcat is the steady-state turnover number, KM is the apparent Michaelis constant, ET is total enzyme concentration, vi is the initial rate in the presence of inhibitor, IC50 is the half-maximal inhibitory concentration, Ki is the inhibitor dissociation constant, A and B are the first and second substrates to bind to the enzyme, respectively, Ka and Kb are their respective Michaelis constants, Kia is the apparent dissociation constant for the complex between enzyme and substrate A when the concentration of B approaches zero, t is time, P(t) is product concentration at time t, A0 is the amplitude of the burst phase, and kburst is the first-order rate constant of product formation in the burst phase. DSF thermal denaturation data were fitted to eq 8,[32] where FU is fraction unfolded, T is the temperature in °C, Tm is the melting temperature, c is the slope of the transition region, and LL and UL are folded and unfolded baselines, respectively. [drawing 1] 1 [drawing 2] 2 [drawing 3] 3 [drawing 4] 4 [drawing 5] 5 [drawing 6] 6 [drawing 7] 7 [drawing 8] 8

Substrate in data set [6]: O=P(O)(O)OC[C@H]1O[C@H](OP(=O)(O)OP(=O)(O)O)[C@H](O)[C@@H]1O
Kind of data set: purified protein, by the assay type. Set-up: steady-state substrate saturation kinetics with Mg2+, Michaelis-Menten fit.
Source text: as §1

Substrate in data set [7]: Nc1ncnc2c1ncn2[C@@H]1O[C@H](COP(=O)(O)OP(=O)(O)OP(=O)(O)O)[C@@H](O)[C@H]1O
The experiment in a line: purified protein, by the assay type. Set-up: steady-state kinetics, spectrophotometric PRATP formation, substrate saturation fitted for KM. The protocol:
as §1, with “For a quantitative comparison of the reactions with ATP and ADP, steady-state kinetic analysis of the reaction with either substrate was carried out (Figure 4) and kinetic parameters are summarized in Table S3. […] Replacement” for “Replacement”, “S5).” for “S5).  Figure 5 Steady-state kinetics with Mg^2+ (green) and Mn^2+ (blue). Saturation curves varying either PRPP or ATP concentration with saturating concentration of the cosubstrate for (A and B) PaHisGS and (C and D) PaATPPRT. Data points are mean ± SE, and lines are data fitting to eq 3.”

Substrate in data set [8]: O=P(O)(O)OC[C@H]1O[C@H](OP(=O)(O)OP(=O)(O)O)[C@H](O)[C@@H]1O
The experiment in a line: purified protein, by the assay type. More on the design: steady-state kinetics, spectrophotometric PRATP formation, substrate saturation fitted for KM. The protocol: as §1, with “For a quantitative comparison of the reactions with ATP and ADP, steady-state kinetic analysis of the reaction with either substrate was carried out (Figure 4) and kinetic parameters are summarized in Table S3. […] Replacement” for “Replacement”, “S5).” for “S5).  Figure 5 Steady-state kinetics with Mg^2+ (green) and Mn^2+ (blue). Saturation curves varying either PRPP or ATP concentration with saturating concentration of the cosubstrate for (A and B) PaHisGS and (C and D) PaATPPRT. Data points are mean ± SE, and lines are data fitting to eq 3.”

Where two headings read alike, the source gives them in different places.

A word on the Kd: it is the free concentration of one partner at which half of the binding sites on the other are occupied at equilibrium, for simple one-to-one binding. Consider `O=P(O)(O)OC[C@H]1O[C@H](OP(=O)(O)OP(=O)(O)O)[C@H](O)[C@@H]1O` [PRPP], for which the Kd in data set [1] is 12 ± 2 µM.
As a reminder, the Ki is the dissociation constant of the complex between target and ligand, obtained from inhibition or displacement. A higher Ki goes with weaker binding. Turning to `Nc1ncnc2c1ncn2[C@@H]1O[C@H](COP(=O)(O)O)[C@@H](O)[C@H]1O` [AMP], in data set [2], the Ki came to 25 ± 5 µM.
Take `Nc1ncnc2c1ncn2[C@@H]1O[C@H](COP(=O)(O)OP(=O)(O)OP(=O)(O)O)[C@@H](O)[C@H]1O` [ATP]: the “steady-state kinetics, initial velocity patterns, 31P NMR of turnover (no ITC or)” value in data set [3] was “once saturated PaHisGS turns over ATP and ADP just as effectively”.
Turning to `Nc1ncnc2c1ncn2[C@@H]1O[C@H](COP(=O)(O)OP(=O)(O)O)[C@@H](O)[C@H]1O` [ADP], the “31P NMR of product formation and steady-state kinetics (alternative substrate, w)” value in data set [4] is listed as “establishing that ADP can replace ATP as a substrate for PaHisGS”.

B1: PaATPPRT (Psychrobacter arcticus 273-4) (protein)
chain: MTEVTNSLPTSGLLNEANDEFLGLTLALSKGRILEETMPLLRAAGVELLEDPEASRKLIFPTSNPNVRVLILRASDVPTYVEHGAADFGVAGKDVLLEHGANHVYELLDLKIAQCKLMTAGVKDAPLPNRRLRIATKYVNVARAYFASQGQQVDVIKLYGSMELAPLVGLGDLIVDVVDTGNTLRANGLEARDHICDVSSRLIVNQVSYKRKFALLEPILDSFKNSINSTS
notes: hetero-octamer of four HisGS and four HisZ
The Km is the substrate concentration at which the rate is half of its maximum. Usually kcat stands for the maximal rate divided by the concentration of active sites. The term kcat/Km denotes the second-order rate constant that governs catalysis at low substrate concentration. Take B1: the Michaelis constant (Km) in data set [5] was found to be 720 ± 90 µM; in data set [6], 430 ± 60 µM; in data set [7] it was 190 ± 30 µM; in data set [8] it was 280 ± 60 µM. Further, the kcat came out at 2.7 ± 0.1 s⁻¹ in data set [5], 2.7 ± 0.1 s⁻¹ in data set [6], 2.1 ± 0.1 s⁻¹ in data set [7] and 2.1 ± 0.1 s⁻¹ in data set [8]. Moreover, the kcat/Km in data set [5] came to 3800 ± 500 M⁻¹ s⁻¹; in data set [6], 6000 ± 900 M⁻¹ s⁻¹; in data set [7], 11100 ± 2000 M⁻¹ s⁻¹; in data set [8], 7500 ± 2000 M⁻¹ s⁻¹.

B2: PaHisGS (short-form ATP phosphoribosyltransferase catalytic subunit) (Psychrobacter arcticus 273-4) (protein)
chain: MTEVTNSLPTSGLLNEANDEFLGLTLALSKGRILEETMPLLRAAGVELLEDPEASRKLIFPTSNPNVRVLILRASDVPTYVEHGAADFGVAGKDVLLEHGANHVYELLDLKIAQCKLMTAGVKDAPLPNRRLRIATKYVNVARAYFASQGQQVDVIKLYGSMELAPLVGLGDLIVDVVDTGNTLRANGLEARDHICDVSSRLIVNQVSYKRKFALLEPILDSFKNSINSTS
As to B2, in data set [7], the Km stood at 300 ± 50 µM, the kcat was 0.39 ± 0.05 s⁻¹ and the kcat/Km is 1300 M⁻¹ s⁻¹. Besides, in data set [8], the Km worked out at 600 ± 200 µM, the kcat worked out at 0.39 ± 0.05 s⁻¹ and the kcat/Km came to 700 ± 200 M⁻¹ s⁻¹.

Values taken from paper PMC6128619, “Allosteric Activation Shifts the Rate-Limiting Step in a Short-Form ATP Phosphoribosyltransferase” (Biochemistry, 2018).
